The values below come from patent US20120231006A1 (Amgen, published 2012).

The target of assay [1] is T1, mOrai1-hOrai1 ECL2 (…) protein (human/mouse chimera, UniProt Q8BWG9 1-304 (mouse entry)).
T1 construct: also called Ch
Put plainly: FACS, 293EBNA transfectants [D00030 FIG. 16D]. An excerpt: (§1) FIG. 16A-D illustrates the results of FACS analysis showing binding to the indicated mOrai1-hOrai1 ECL2 chimeric mutants expressed on the surface of HEK-293-EBNA cells. Transfected cells were stained first with recombinant monoclonal antibodies then counter-stained with a secondary phycoerythrin-labeled goat (“Gt”) anti-human (“Hu”) IgG F(ab′)₂ antibody fragment and visualized using FACS. In FIG. 16B and FIG. 16D, The values of Relative Fluorescence Intensity as Percent of Control (RFI-POC) are calculated from the relative fluorescence intensity geometric mean (Geo Mean). The geometric mean is an average calculated by multiplying a series of numbers and taking the nth root where n is the number of numbers in the series. It is a statistical average of a set of transformed numbers often used to represent a central tendency in a highly variable data set that minimizes the effects of extreme values.
(§2) Table 11A and Table 11B feature a schematic representation of the POC data from FIG. 16B and FIG. 16D, respectively, where the binding results are recorded as (+++) denoting binding POC from 40% to 100%, (++) for POC of 5% to less than 40%, (+) for POC from 1% to less than 5% and (−) as lack of binding with POC less than 1%.

Assay [2] concerns the target T2, mOrai1-hOrai1 ECL2 (AESVIV) protein (human/mouse chimera, UniProt Q8BWG9 1-304 (mouse entry)).
T2 construct: also called Ch
Nature of the assay: FACS, 293EBNA transfectants [D00030 FIG. 16D].
From the text: as §1, §2

Assay [3] deals with T3, mOrai1-hOrai1 ECL2 chimeric protein (human/mouse chimera, UniProt Q8BWG9 1-304 (mouse entry)).
T3 construct: mouse Orai1 with human ECL2; also called Ch
T3 sequence (Q8BWG9 other isoform, or with tags, fused parts or gaps mutant): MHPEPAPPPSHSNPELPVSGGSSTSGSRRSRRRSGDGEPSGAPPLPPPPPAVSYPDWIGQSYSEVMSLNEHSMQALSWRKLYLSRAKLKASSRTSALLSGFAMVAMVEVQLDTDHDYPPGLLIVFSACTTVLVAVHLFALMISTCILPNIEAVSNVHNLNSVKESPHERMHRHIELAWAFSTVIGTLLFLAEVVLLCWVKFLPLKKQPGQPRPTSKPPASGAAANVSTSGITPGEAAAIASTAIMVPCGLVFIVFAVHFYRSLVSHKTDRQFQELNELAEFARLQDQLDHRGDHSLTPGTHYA
Put plainly: FACS, 293EBNA transfectants [D00028 FIG. 16B].
From the text: as §1, §2

Assay [4] has as its target T4, mOrai1-hOrai1 ECL2 (VIV) protein (human/mouse chimera, UniProt Q8BWG9 1-304 (mouse entry)).
T4 construct: also called Ch
Put plainly: FACS, 293EBNA transfectants [D00028 FIG. 16B].
From the text: as §1, §2

Assay [5] has as its target T5, mOrai1-hOrai1 ECL2 (HSD) protein (human/mouse chimera, UniProt Q8BWG9 1-304 (mouse entry)).
T5 construct: also called Ch
Put plainly: FACS, 293EBNA transfectants [D00028 FIG. 16B].
From the text: as §1, §2

The target of assay [6] is T1, mOrai1-hOrai1 ECL2 (…) protein. Nature of the assay: FACS, 293EBNA, RFI-POC grade. Also on record: concentration or dose not given beside the values. The essentials: (§3)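 HEK-293-EBNA cells expressing mOrai1-hOrai1 ECL2 chimeric mutants stained with recombinant monoclonal antibodies, then PE-labelled goat anti-human IgG F(ab′)2, and analysed by FACS. RFI-POC derived from geometric mean fluorescence; graded +++ (40–100%), ++ (5–<40%), + (1–<5%), − (<1%).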

Assay [7] addresses T2, mOrai1-hOrai1 ECL2 (AESVIV) protein. Nature of the assay: FACS, 293EBNA, RFI-POC grade. Also on record: concentration or dose not given beside the values. The essentials: as §3

T2 sequence (Q8BWG9 other isoform, or with tags, fused parts or gaps): as the sequence (Q8BWG9 other isoform, or with tags, fused parts or gaps mutant) above, with P218A, A219E, G221V, A222I, A223V counted along it
T1 sequence (Q8BWG9 other isoform, or with tags, fused parts or gaps): as the sequence (Q8BWG9 other isoform, or with tags, fused parts or gaps mutant) above, with P218A, A219E, G221V, A222I, A223V, V226H, T228D counted along it
T4 sequence (Q8BWG9 other isoform, or with tags, fused parts or gaps): as the sequence (Q8BWG9 other isoform, or with tags, fused parts or gaps mutant) above, with G221V, A222I, A223V counted along it
T5 sequence (Q8BWG9 other isoform, or with tags, fused parts or gaps): as the sequence (Q8BWG9 other isoform, or with tags, fused parts or gaps mutant) above, with V226H, T228D counted along it

B1: mAb 2D2.1 (antibody, human IgG2, lambda, V domains shown)
VH: QVQLQQWGAGLLKPSETLSLTCAVYGGSFSGYYWSWIRQPPGKGLEWIGEIDHSGRINYNPALKSRLTISVDTSKNQFSLKLSSVTAADTAVYYCARAGSGGYEDWFDPWGQGTLVTVSS
VL: QSVLTQPPSVSGAPGQRVTISCTGSSSNIGAGYNVHWYQQFPRTDPKLLIYVYNIRPSGVPDRFSGSRSGTSASLAITGLQTEDEADYYCQSYDSSLSGVVFGGGTKLTVLG
notes: fully human IgG2 lambda, Campaign 1; also called mAb 2D.1
Consider B1, for which the binding result in assay [1] and in assay [2] was “binds” in each case.

B2: mAb 2B4.1 (antibody, human IgG2, lambda, V domains shown)
VH: QVQLVQSGAEVKKPGASVKVSCKASGYTFTDYYMHWVRQAPGQGLEWMGWINPNSGGTNYVQKFQDRVTMTRDTSITTAYMELTRLRSDDTAVYYCAREEGDYGMDVWGQGTTVTVSS
VL: QSVLTQPPSVSGAPGQRVTISCTGSNSNIGTGYDVHWYQKLPGTAPRLLIYSHFNRPSGVPDRFSGSTSGTSASLAITGLQAEDEADYYCQSYDSSLSGSVFGGGTKLTVLG
Turning to B2, the binding result in assay [3], in assay [4] and in assay [5] was “binds” each time.

B3: mAb 5B1.1 (antibody, human IgG2, lambda, V domains shown)
VH: QVQLVQSGAEVKKPGASVKVSCKASGYTFTDYYINWVRQAPGQGLEWMGWINPNSGGSSYAQKFQGRVTMTRDTSISTAHMELIRLRSDDTAVYYCARERGGIEDWFDPWGQGTLVTVSS
VL: QSVLTQPPSVSGAPGQRVTISCTGSSSNIGAGYDVHWYQQLPGTAPKLLIYGNSNRPSGVPDRFSGSKSGTSASLAITKFQAEDEAVYYCQSYGSGLSGVVFGGGTKLTVLG
notes: fully human IgG2 lambda, Campaign 2; also called mAb 5Bl1.1
On to B3, for which the “POC (percent of control, FACS Geo Mean relative to binding to Ch. 1)” value in assay [6] and in assay [7] was 1 to 5% in each case.
